Bounds are passed on as bounds.

Consider three molecules from patent US20060134103A1, “Compounds and molecular complexes comprising multiple binding regions directed to transcytotic ligands” (published 2006).

Assay [1] addresses pIgR expressed in transfected MDCK cells (Examples 6 and 7).
Assay [2] concerns the target GST-Rat-stalk fusion protein (Schistosoma japonica; rat) (UniProt P15083). In words: SPR (BIAcore), D6-GST captured by immobilized anti-GST antibody, 1:1 Langmuir global fit. A general note: In SPR one partner is held on a chip, and binding of the other changes the refractive index at the surface.
Assay [3] addresses T1, GST-Human-stalk fusion protein (Schistosoma japonica; human, UniProt P01833).
T1 chain: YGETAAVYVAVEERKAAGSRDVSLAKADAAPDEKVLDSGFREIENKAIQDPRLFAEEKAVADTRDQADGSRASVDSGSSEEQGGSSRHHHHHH
The description is as above.

B1: sFv5AF-Cys purified dimer (scFv)
scFv: DYKAKQVQLVQSGGGVVQPGRSLRLSCAASGFTFSSYAMHWVRQAPGKGLEWVSAISGSGGSTYYADSVKGRFTISRDNAKNSLYLQMNSLRAEDTAVYYCARDTRGYFDLWGRGTLVTVSSGGGGSGGGGSGGGGSSELTQDPAMSVALGQTVRITCQGDSLRKYHASWYQQRPRQAPRLVVYGKNERPSGIPERFSGSTSGDTASLTISGLQAEDEADYYCHSRDSNADLVVFGGGTKVTVLGAAAEQKLISEEDLNGAAHHHHHH
Broadly, the Kd is the concentration at which binding is half-saturated. With B1, in assay [1], the apical to basolateral (reverse) transcytosis after 16 hours worked out at 10% and the basolateral to apical (forward) transcytosis after 16 hours was under 10%. In assay [2], this molecule gave a Ka of 5.01e+08 M⁻¹ and a Kd of 2 nM. In assay [3], the Ka amounted to 5.02e+08 M⁻¹ and binding was characterised by a dissociation constant (Kd) of 1.99 nM.

B2: sFv5AF-Cys purified monomer (scFv)
scFv: DYKAKQVQLVQSGGGVVQPGRSLRLSCAASGFTFSSYAMHWVRQAPGKGLEWVSAISGSGGSTYYADSVKGRFTISRDNAKNSLYLQMNSLRAEDTAVYYCARDTRGYFDLWGRGTLVTVSSGGGGSGGGGSGGGGSSELTQDPAMSVALGQTVRITCQGDSLRKYHASWYQQRPRQAPRLVVYGKNERPSGIPERFSGSTSGDTASLTISGLQAEDEADYYCHSRDSNADLVVFGGGTKVTVLGAAAEQKLISEEDLNGAAHHHHHH
In general, koff refers to the rate constant with which the complex falls apart. Low values mean slow dissociation, high ones fast dissociation. B2 gave an apical to basolateral (reverse) transcytosis after 16 hours in assay [1] of under 5%. In assay [2], this molecule came in with a Ka of 1.77e+08 M⁻¹ and a Kd of 5.63 nM. Further, in assay [3], the Ka was 1.77e+08 M⁻¹, binding was put at a Kd of 5.64 nM and the koff was 0.00241 s⁻¹.

B3: sFv5AF-Cys (starting material, mixture of monomer and dimer) (scFv)
scFv: DYKAKQVQLVQSGGGVVQPGRSLRLSCAASGFTFSSYAMHWVRQAPGKGLEWVSAISGSGGSTYYADSVKGRFTISRDNAKNSLYLQMNSLRAEDTAVYYCARDTRGYFDLWGRGTLVTVSSGGGGSGGGGSGGGGSSELTQDPAMSVALGQTVRITCQGDSLRKYHASWYQQRPRQAPRLVVYGKNERPSGIPERFSGSTSGDTASLTISGLQAEDEADYYCHSRDSNADLVVFGGGTKVTVLGAAAEQKLISEEDLNGAAHHHHHH
In the case of B3, in assay [2], the Ka amounted to 4.36e+08 M⁻¹ and the Kd is 2.3 nM. In assay [3], this molecule showed a Ka of 6.71e+08 M⁻¹, a Kd of 1.49 nM and a koff of 0.00145 s⁻¹.
